Data taken from the RNAGym collection of RNA variant scans (doi:10.1073/pnas.2313332121).

B1: TPR t1 (parent)
chain: GACCAAUCUGCCCUCAGAGCUCGAGAACAUCUUCGGAUGCAGAGGAGGCAGGCUUCGGUGGCGCGAUAGCGCCAACGUCCUCAACCUCCAAUGCAUCCCACCACAUGAUGAUGCCUGAAGAGCCUUGGUUUUUUG

Variants of: B1
Experiment: polymerase ribozyme fitness, log enrichment relative to wild type (log ratio); higher = more active; in vitro selection for triplet polymerase activity
Procedure, shortened: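 After PCR construction and transcription, each subunit's mutant library from a heterodimeric triplet polymerase ribozyme was annealed with a biotinylated primer, the partner subunit and triplets. Incubation was frozen, at −7 °C, and extended constructs were gel-excised, bound to streptavidin beads and amplified by RT-PCR, in one selection round done in triplicate. Fitness is the logarithm of a genotype's enrichment divided by that of the wild type, from inverse-variance-weighted replicate averages of Illumina-sequenced inputs and outputs. The base of the logarithm is 2, and genotypes needed ≥10 input reads and ≥1 read per output.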

Question: With GACCAAUCUGCCCUCAGAGCUCGAGAAGAUCUUCGGAUGAAGAGGAGGCAGGCUUCGGUGGCGCGAUAGCACCAACGUCCUCAACCUCCAAUGUAUCCCACCACAUGAUCAUGCCUGAAGAGCCUUGGUUUUUUG as the variant, how does the “polymerase ribozyme fitness (log ratio)” value read?
Answer: -1.03

Question: With GACCAAUCUGCCCUCAGAGCUCGAGAAAAUCUUCGGAUGCAGAGAAGGCAGGUUUCGGUGACGCGAUAGCGCCAACGUCCUCAACCUCCAAUGCAUCCCACCACAUGAUCAUGCCUGAAGAGCCUUGGUUUUUUG as the variant, how does the “polymerase ribozyme fitness (log ratio)” value read?
Answer: -1.65

Question: For GACCAAUCUGCCCUCAGAGCUCGAGAAGAUCUUCGGAUGCAGAGGAGGCAGGCUUCGGUGGCGCGAUAGCGCCAACGUCCUCAUCCUCCAAUGCAUCCCACCUCAUGAUCAUGCCUGAAGAGCCUUGGUUUUUUG, which “polymerase ribozyme fitness (log ratio)” value is on record?
Answer: -4.22

Question: With GACCAAUCUGCCCUCAGAGCUCGAGAAAAUCUUCGGAUGCAGAGGAGGCAGGCUUCGGUCGCGCGAUAGCGCCAACGUCCUCAACCUCCAAUGCAUCCCACCACAUGAUGAUGCCUGAAGAGCCUUGGUUUUUUG as the variant, how does the “polymerase ribozyme fitness (log ratio)” value read?
Answer: -4.02

Question: With GACCAAUCUGCCCUCAGAGCUCGAGAAAAUCUUCGGAUGCAGAGGAGGCAGGCUUCGGUGGCGCGAUAGCGCCAACGUCCUCAACCUCCAAUGCAUCCCACCACAUGAUGAUGCCUGAAGAGCUUUGGUUUUUUG as the variant, how does the “polymerase ribozyme fitness (log ratio)” value read?
Answer: -2.12

Question: Which “polymerase ribozyme fitness (log ratio)” value does the source give for GACCAAUCUGCCCUCAGAGCUCGAGAAGAUCUUCGGAUGCAGAGGAGGCAGGCUUCGGUGGCGCGAUAGCGCCAACGUCCUCAACCUCCAAUGCUUCCCACCACAUGAUCCUGCCUGAAGAGCCUUGGUUUUAUG here?
Answer: -1.6

Question: With GACCAAUCUGCCCUCAGAGCUCGAGAAGCUCUUCGGAUGCAGAGGAGGCAGGCUUCGGUGGCGCGAUAGCGCCAACGUCCUCAACCUCCAAUGCGUCUCACCACAUAAUGAAGCCUGAAGAGCCUUGGUUUUUUG as the variant, how does the “polymerase ribozyme fitness (log ratio)” value read?
Answer: -5.27

Question: Which “polymerase ribozyme fitness (log ratio)” value does the source give for GACCAAUCUGCCCUCAGAGCUCGAGAAAAUCUUCGGAUGCAGAGGAGGCAGGCUUCGGUGGCGCGAUAGCGCCAACGUCCUCAACCUCCAAUGCAUCCUACCACAAGAUGAUGCCUGAAGAGCCUUGGUUUUUUG here?
Answer: -5.34

Question: Which “polymerase ribozyme fitness (log ratio)” value does the source give for GACCAAUCUGCCCUCAGAGCUCGAGAAGAUCUUCGGUUGCAUAGGAGGCAGGCUUAGGUGGCGCGAUAGCGCCAACGUCCUCAACCUCCAAUGCAUCCCACCACAAGAUGAUAGCUGAAGAGCCUUGGUUUUUUG here?
Answer: -5.89

Question: With GACCAAUCUGCCCUCAGAGCUCGAGAAAAUCUUCGGAUUCAGAGGAGGCAGGCUUCGGUGGCGUGAUAGCGCCAACGUCCUCAACCUCCAAUGCAUCCCACCAAAUGAUGAUGCCUGAGGAGCCUUGGUUUUUUG as the variant, how does the “polymerase ribozyme fitness (log ratio)” value read?
Answer: -5.82

Question: Which “polymerase ribozyme fitness (log ratio)” value does the source give for GACCAAUCUGCCCUCAGAGCUCGAGAAAAUCUUCGGAUGCAGAGGAGGCAGGCUGCGGUGGCGCGAUAGCACCAACGUCCUCAACCUCCAAUGCAUCCCACCACAUGAUGAUGCCUGAAGAGCCUUGGUUUUUUG here?
Answer: -5.6

Question: For GACCAAUCUGCCCUCAGAGCUCGAGAAAAUCUUCGGAUGCAGAGGAGGCAGGCUUCGGUGGCGCGAUAGCGCCAACGUCCUCAACCUCCAAUGCAUCCCACCACAUGAUGAUGCCUGAAGAGCCUUCGUUUUUUG, which “polymerase ribozyme fitness (log ratio)” value is on record?
Answer: -5.95

Question: For GACCAAUCUGCCCUCAGAGCUCGAGAAAAUCUUCGGAUGCAGAGGAGGCAGGCUUCGGUGGCGCGAUAGCGCCAACGUCCUCAACCUCCAAUGCAUCCCACCACAUGAUGAUGCCUAAAGAGCCUUGGUUUUUUG, which “polymerase ribozyme fitness (log ratio)” value is on record?
Answer: -4.5

Question: For GACCAAUCUGCCCUCAGAGCUCGAGAAGAUCUUCGGAUGCAGAGGAGGCGGGCUUCGGUGGCGCGAUAUCGCCAACGUCCUCAACCUCCAAUGCAUCCCACCACAUGAUGAUGCCUGAAGAGCCUUGGUUUUUUG, which “polymerase ribozyme fitness (log ratio)” value is on record?
Answer: -0.817

Question: For GACCAAUCUGCCCUCAGAGCUCGAGAAGAUCUUCGGAUGCAGAGGAGGCCGGCUUCGGUGACGCGAUAGCGCCAACGUCCUCAACCUACAAUGCAUCCCACCACAUGAUGAUGCCUGAAGAGCCUUGGUUUUUUG, which “polymerase ribozyme fitness (log ratio)” value is on record?
Answer: -3.77

Question: Which “polymerase ribozyme fitness (log ratio)” value does the source give for GACCAAUCUGCCCUCAGAGCUCGAGAAGAUCUUCGGAUGCAGAGGAGGCCGGCUUCGGUGGCGCGAUAGCGCCAACGUCCUCAACCACCAAUGCAUCCCACCACAUGAUGAUGCCUGAAGAGCCUUGGUUUUUUG here?
Answer: -3.39

Question: With GACCAAUCUGCCCUCAGAGCUCGAGAAGAUCUUCGGAUGCAGGGAAGGCAGGCUUCGGUGGCGCGAUAGCGCCAACGUACUCAACCUCCAAUGCAUCCCACCACAUGAUGAUGCUUUAAGAGCCUUGGUUUUUUG as the variant, how does the “polymerase ribozyme fitness (log ratio)” value read?
Answer: -5.19

Question: With GACCAAUCUGCCCUCAGAGCUCGAGAAAAUCUUCGGAUGCAGAGGAGGCAGGCUUCGGUGGCGCGAUAGCGCCAACGUCCUCAACCUGCAAUGCAUCCCACCACAUGAUGAUGCCUGAAGAGCCUUGGUUUUUUG as the variant, how does the “polymerase ribozyme fitness (log ratio)” value read?
Answer: -4.25

Question: Which “polymerase ribozyme fitness (log ratio)” value does the source give for GACCAAUCUGCCCUCAGAGCUCGAGAAGGUCUUCGGAUGCAUAAGAGGCAGGCUUCGGUGGCGCGAUAGCGCCAACGUCCUCUACCUCCAAUGCAUCCCACCACAUGAUGAUGCCUGAAGAGCUUUGGUUUUUUG here?
Answer: -7.08

Question: Which “polymerase ribozyme fitness (log ratio)” value does the source give for GACCAAUCUGCCCUCAGAGCUCGAGAAGAUCUUCGGAUGCAGAGGGGGCAGGCUUCGGUGGCGCGAUAGCGCCAACGUCCUCAACCUCCAAUGCAUCCCACCACAUGAUGAUGCCUGAAAAGCCUUGGUAUUUUG here?
Answer: -2.51

Question: Which “polymerase ribozyme fitness (log ratio)” value does the source give for GACCAAUCUGCCCUCAGAGCUCGAGAAGAUCUUCGGCUGCAGAGGAGGCAGGCUUCGGUGGCGCGAUAGCGCCAACGUCCUCAACCUCCACUGCAUCCCACCACAUGAUGAUGCCUGAAGAGCCUUGGUUUUUUG here?
Answer: -6.42
